The sequences below were run on AncSZ (assay: phosphorylation enrichment, bacterial display (enrichment ratio); higher = better substrate or ligand; peptides without Tyr show the background).
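Also: 11-residue human phosphosite peptides and single-mutation variants displayed on the E. coli surface, counted by deep sequencing, each peptide's frequency after selection divided by its frequency in the unselected input library; frequency after pTyr selection over input frequency; kinase dosed for 20-30% of maximal phosphorylation in three min.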

| Sequence | phosphorylation enrichment |
| --- | --- |
| RSDSTYRMSAT [NHS_Y1532_S1531T] | 0.587 |
| SQQTYYPVSNM [ABCD1_Y181_R182P] | 1.32 |
| IRDENYGEGSS [ACO2_Y665_G661R] | 0.917 |
| HNLFSYPTKFE [MYO3A_Y1396_H1400Y_YF] | 0.869 |
| KLSFSYGRALQ [ALDOB_Y302] | 0.9 |
| ALAQKYHGGGG [HBB_Y146_H144Q] | 0.492 |
| QKTGDYFDLFG [PTPN11_Y62_N58K_YF] | 2.17 |
| AKKMKYFEGVS [PRKDC_Y682_I680M] | 0.493 |
| RNIQQYNSFVS [PRKAR1A_Y373] | 0.768 |
| RRGMPYGGLGD [TGM1_Y312_R315L] | 0.618 |
| FIRKDYEACKA [BBS4_Y48_YF] | 0.642 |
| TESNNYIYTTL [FAM83B_Y637_K640T] | 1.03 |
| WQQQSYLGSGI [CTNNB1_Y30_D32G] | 0.748 |
| LQLLGYRPVFS [CHST6_Y358_YF] | 1.17 |
| YISLIYTNYEA [GSTP1_Y109] | 1.68 |
| DRLASYLDKMR [KRT17_Y98_V102M] | 0.697 |
| NSVLVYRNGDP [DCDC2_Y22_K17N] | 0.621 |

| Sequence | phosphorylation enrichment |
| --- | --- |
| WAFNLYDINKY [KCNIP3_Y174_D179Y] | 0.987 |
| GPGLVYGVANK [FLNB_Y1833] | 0.531 |
| KNNDGYTDYAE [MCFD2_Y135_I136T] | 0.941 |
| GTGTAYLCGVK [ALPL_Y117_A114G] | 0.694 |
| LEDPMYDIIRD [RP9_Y142_H137L] | 3.53 |
| PFAEPYADFGG [APBA1_Y187_S184A_YF] | 1.13 |
| VRFMEYETQVK [TARDBP_Y155_T153M] | 0.943 |
| DDHFTYSRFPW [LY75_Y888_YF] | 1.16 |
| MRALIYNSSTV [PLEKHA7_Y243_A248V] | 0.669 |
| ILNANCMAKRL [GLDC_Y839_Y839C] | 0.612 |
| QDRTFYESVRT [SPEN_Y633_YF] | 1.1 |
| MACDRYVAICS [OR8D4_Y123] | 0.709 |
| LFCLHYFHRTF [SRD5A2_Y91_V89L] | 1.85 |
| RGNKEYKEEKR [LENG1_Y96_E97K] | 0.462 |
| ASKEPYFVRCI [MYO1D_Y585_YF] | 1.38 |
| SFTDPYAQPSL [KMT2D_Y2378_P2382S_YF] | 0.743 |

Each sequence was assayed against EPHB1 (UniProt P54762) in the same assay as above.
EPHB1, sequence (P54762 whole entry, looked up): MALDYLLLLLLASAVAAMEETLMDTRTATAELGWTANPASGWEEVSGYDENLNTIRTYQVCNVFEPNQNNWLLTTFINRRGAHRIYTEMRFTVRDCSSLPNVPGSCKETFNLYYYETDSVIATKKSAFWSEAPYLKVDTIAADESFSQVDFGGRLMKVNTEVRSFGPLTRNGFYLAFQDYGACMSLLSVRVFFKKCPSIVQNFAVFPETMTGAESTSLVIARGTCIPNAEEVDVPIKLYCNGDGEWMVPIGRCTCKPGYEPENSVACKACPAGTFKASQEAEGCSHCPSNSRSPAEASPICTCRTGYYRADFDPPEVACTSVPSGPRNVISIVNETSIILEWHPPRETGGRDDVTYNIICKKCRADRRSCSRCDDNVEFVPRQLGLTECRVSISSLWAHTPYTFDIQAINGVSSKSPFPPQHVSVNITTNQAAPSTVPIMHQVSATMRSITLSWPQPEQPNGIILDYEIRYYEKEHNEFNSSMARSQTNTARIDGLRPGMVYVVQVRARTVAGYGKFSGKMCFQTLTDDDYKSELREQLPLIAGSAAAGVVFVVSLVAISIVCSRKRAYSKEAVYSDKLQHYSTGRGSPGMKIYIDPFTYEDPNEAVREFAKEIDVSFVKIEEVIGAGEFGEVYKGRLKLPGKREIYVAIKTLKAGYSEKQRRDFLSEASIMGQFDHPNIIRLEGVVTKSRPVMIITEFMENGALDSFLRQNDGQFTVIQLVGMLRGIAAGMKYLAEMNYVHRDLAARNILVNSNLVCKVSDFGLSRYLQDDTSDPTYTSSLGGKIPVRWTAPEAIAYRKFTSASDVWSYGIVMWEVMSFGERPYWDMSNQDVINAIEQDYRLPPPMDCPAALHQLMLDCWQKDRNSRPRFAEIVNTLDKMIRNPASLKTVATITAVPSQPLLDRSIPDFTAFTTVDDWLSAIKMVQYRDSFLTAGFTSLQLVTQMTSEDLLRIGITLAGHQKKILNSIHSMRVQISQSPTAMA

| Sequence | phosphorylation enrichment |
| --- | --- |
| RSDSTYRMSAT [NHS_Y1532_S1531T] | 0.411 |
| SQQTYYPVSNM [ABCD1_Y181_R182P] | 5.58 |
| IRDENYGEGSS [ACO2_Y665_G661R] | 0.364 |
| HNLFSYPTKFE [MYO3A_Y1396_H1400Y_YF] | 0.474 |
| KLSFSYGRALQ [ALDOB_Y302] | 0.548 |
| ALAQKYHGGGG [HBB_Y146_H144Q] | 0.372 |
| QKTGDYFDLFG [PTPN11_Y62_N58K_YF] | 11 |
| AKKMKYFEGVS [PRKDC_Y682_I680M] | 0.393 |
| RNIQQYNSFVS [PRKAR1A_Y373] | 0.391 |
| RRGMPYGGLGD [TGM1_Y312_R315L] | 0.302 |
| FIRKDYEACKA [BBS4_Y48_YF] | 0.651 |
| TESNNYIYTTL [FAM83B_Y637_K640T] | 2.3 |
| WQQQSYLGSGI [CTNNB1_Y30_D32G] | 0.362 |
| LQLLGYRPVFS [CHST6_Y358_YF] | 0.598 |
| YISLIYTNYEA [GSTP1_Y109] | 1.7 |
| DRLASYLDKMR [KRT17_Y98_V102M] | 0.376 |
| NSVLVYRNGDP [DCDC2_Y22_K17N] | 0.532 |

| Sequence | phosphorylation enrichment |
| --- | --- |
| WAFNLYDINKY [KCNIP3_Y174_D179Y] | 2.29 |
| GPGLVYGVANK [FLNB_Y1833] | 0.421 |
| KNNDGYTDYAE [MCFD2_Y135_I136T] | 0.475 |
| GTGTAYLCGVK [ALPL_Y117_A114G] | 0.551 |
| LEDPMYDIIRD [RP9_Y142_H137L] | 4.98 |
| PFAEPYADFGG [APBA1_Y187_S184A_YF] | 0.695 |
| VRFMEYETQVK [TARDBP_Y155_T153M] | 1.25 |
| DDHFTYSRFPW [LY75_Y888_YF] | 4.84 |
| MRALIYNSSTV [PLEKHA7_Y243_A248V] | 0.447 |
| ILNANCMAKRL [GLDC_Y839_Y839C] | 0.306 |
| QDRTFYESVRT [SPEN_Y633_YF] | 0.74 |
| MACDRYVAICS [OR8D4_Y123] | 0.508 |
| LFCLHYFHRTF [SRD5A2_Y91_V89L] | 0.9 |
| RGNKEYKEEKR [LENG1_Y96_E97K] | 0.369 |
| ASKEPYFVRCI [MYO1D_Y585_YF] | 0.762 |
| SFTDPYAQPSL [KMT2D_Y2378_P2382S_YF] | 0.47 |

These sequences were tested against EPHB2 (UniProt P29323) in the same assay as above.
EPHB2, sequence (P29323 whole entry, looked up): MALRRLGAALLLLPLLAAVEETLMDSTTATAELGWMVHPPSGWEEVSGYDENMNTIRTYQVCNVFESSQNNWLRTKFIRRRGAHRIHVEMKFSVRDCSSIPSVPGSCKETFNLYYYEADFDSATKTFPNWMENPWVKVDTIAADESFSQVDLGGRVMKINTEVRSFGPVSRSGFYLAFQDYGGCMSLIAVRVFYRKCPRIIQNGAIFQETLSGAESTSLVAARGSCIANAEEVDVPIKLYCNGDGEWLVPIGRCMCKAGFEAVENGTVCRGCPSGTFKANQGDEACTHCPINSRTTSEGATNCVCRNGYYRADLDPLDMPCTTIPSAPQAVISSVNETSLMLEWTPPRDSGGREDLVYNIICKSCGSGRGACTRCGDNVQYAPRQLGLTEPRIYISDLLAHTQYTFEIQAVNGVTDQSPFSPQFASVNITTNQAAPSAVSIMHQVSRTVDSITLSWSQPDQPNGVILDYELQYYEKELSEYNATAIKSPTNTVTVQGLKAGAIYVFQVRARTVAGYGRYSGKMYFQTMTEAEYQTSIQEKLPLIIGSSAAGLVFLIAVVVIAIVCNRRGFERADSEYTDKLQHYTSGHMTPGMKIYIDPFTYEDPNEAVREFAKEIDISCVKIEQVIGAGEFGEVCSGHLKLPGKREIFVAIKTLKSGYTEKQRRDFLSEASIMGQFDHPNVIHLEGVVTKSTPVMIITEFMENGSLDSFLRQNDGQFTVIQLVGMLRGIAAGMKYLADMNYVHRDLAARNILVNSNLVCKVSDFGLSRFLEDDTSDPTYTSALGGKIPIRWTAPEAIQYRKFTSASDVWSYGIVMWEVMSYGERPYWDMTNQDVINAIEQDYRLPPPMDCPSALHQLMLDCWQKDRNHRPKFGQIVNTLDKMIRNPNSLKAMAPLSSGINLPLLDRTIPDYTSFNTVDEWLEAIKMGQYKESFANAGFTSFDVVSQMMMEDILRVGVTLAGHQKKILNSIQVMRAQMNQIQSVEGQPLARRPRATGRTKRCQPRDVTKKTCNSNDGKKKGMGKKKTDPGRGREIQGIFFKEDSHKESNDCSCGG

| Sequence | phosphorylation enrichment |
| --- | --- |
| RSDSTYRMSAT [NHS_Y1532_S1531T] | 0.556 |
| SQQTYYPVSNM [ABCD1_Y181_R182P] | 4.24 |
| IRDENYGEGSS [ACO2_Y665_G661R] | 0.422 |
| HNLFSYPTKFE [MYO3A_Y1396_H1400Y_YF] | 0.507 |
| KLSFSYGRALQ [ALDOB_Y302] | 0.483 |
| ALAQKYHGGGG [HBB_Y146_H144Q] | 0.366 |
| QKTGDYFDLFG [PTPN11_Y62_N58K_YF] | 6.35 |
| AKKMKYFEGVS [PRKDC_Y682_I680M] | 0.3 |
| RNIQQYNSFVS [PRKAR1A_Y373] | 0.611 |
| RRGMPYGGLGD [TGM1_Y312_R315L] | 0.536 |
| FIRKDYEACKA [BBS4_Y48_YF] | 0.516 |
| TESNNYIYTTL [FAM83B_Y637_K640T] | 1.15 |
| WQQQSYLGSGI [CTNNB1_Y30_D32G] | 0.469 |
| LQLLGYRPVFS [CHST6_Y358_YF] | 0.793 |
| YISLIYTNYEA [GSTP1_Y109] | 1.71 |
| DRLASYLDKMR [KRT17_Y98_V102M] | 0.467 |
| NSVLVYRNGDP [DCDC2_Y22_K17N] | 0.463 |

| Sequence | phosphorylation enrichment |
| --- | --- |
| WAFNLYDINKY [KCNIP3_Y174_D179Y] | 3.92 |
| GPGLVYGVANK [FLNB_Y1833] | 0.405 |
| KNNDGYTDYAE [MCFD2_Y135_I136T] | 0.57 |
| GTGTAYLCGVK [ALPL_Y117_A114G] | 0.412 |
| LEDPMYDIIRD [RP9_Y142_H137L] | 6.72 |
| PFAEPYADFGG [APBA1_Y187_S184A_YF] | 0.593 |
| VRFMEYETQVK [TARDBP_Y155_T153M] | 1.14 |
| DDHFTYSRFPW [LY75_Y888_YF] | 5.18 |
| MRALIYNSSTV [PLEKHA7_Y243_A248V] | 0.657 |
| ILNANCMAKRL [GLDC_Y839_Y839C] | 0.439 |
| QDRTFYESVRT [SPEN_Y633_YF] | 0.579 |
| MACDRYVAICS [OR8D4_Y123] | 0.592 |
| LFCLHYFHRTF [SRD5A2_Y91_V89L] | 0.541 |
| RGNKEYKEEKR [LENG1_Y96_E97K] | 0.423 |
| ASKEPYFVRCI [MYO1D_Y585_YF] | 0.734 |
| SFTDPYAQPSL [KMT2D_Y2378_P2382S_YF] | 0.526 |

These sequences were tested against FGFR1 (UniProt P11362) in the same assay as above.
FGFR1, sequence (P11362 whole entry, looked up): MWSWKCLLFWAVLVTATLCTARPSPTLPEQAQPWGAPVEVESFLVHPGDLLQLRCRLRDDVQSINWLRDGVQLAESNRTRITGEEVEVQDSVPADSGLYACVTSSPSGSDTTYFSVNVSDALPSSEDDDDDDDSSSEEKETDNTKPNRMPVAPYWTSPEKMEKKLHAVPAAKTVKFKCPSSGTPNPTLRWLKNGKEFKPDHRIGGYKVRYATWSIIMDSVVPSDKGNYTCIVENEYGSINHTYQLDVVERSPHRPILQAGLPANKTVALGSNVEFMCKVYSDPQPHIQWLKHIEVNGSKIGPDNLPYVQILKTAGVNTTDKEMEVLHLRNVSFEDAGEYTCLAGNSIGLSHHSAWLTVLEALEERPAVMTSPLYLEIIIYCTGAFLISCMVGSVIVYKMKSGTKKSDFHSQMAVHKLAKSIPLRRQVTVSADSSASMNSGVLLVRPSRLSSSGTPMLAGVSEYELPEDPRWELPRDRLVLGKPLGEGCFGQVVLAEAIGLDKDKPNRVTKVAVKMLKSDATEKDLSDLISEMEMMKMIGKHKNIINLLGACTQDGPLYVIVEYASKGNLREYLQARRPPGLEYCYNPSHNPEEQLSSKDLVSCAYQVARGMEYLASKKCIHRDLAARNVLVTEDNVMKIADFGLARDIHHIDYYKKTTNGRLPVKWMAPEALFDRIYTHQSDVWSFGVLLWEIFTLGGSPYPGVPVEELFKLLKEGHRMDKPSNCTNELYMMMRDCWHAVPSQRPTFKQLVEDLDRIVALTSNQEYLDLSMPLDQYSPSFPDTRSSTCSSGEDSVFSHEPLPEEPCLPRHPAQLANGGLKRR

| Sequence | phosphorylation enrichment |
| --- | --- |
| RSDSTYRMSAT [NHS_Y1532_S1531T] | 0.558 |
| SQQTYYPVSNM [ABCD1_Y181_R182P] | 13.5 |
| IRDENYGEGSS [ACO2_Y665_G661R] | 0.437 |
| HNLFSYPTKFE [MYO3A_Y1396_H1400Y_YF] | 0.671 |
| KLSFSYGRALQ [ALDOB_Y302] | 0.519 |
| ALAQKYHGGGG [HBB_Y146_H144Q] | 0.348 |
| QKTGDYFDLFG [PTPN11_Y62_N58K_YF] | 20.1 |
| AKKMKYFEGVS [PRKDC_Y682_I680M] | 0.395 |
| RNIQQYNSFVS [PRKAR1A_Y373] | 0.573 |
| RRGMPYGGLGD [TGM1_Y312_R315L] | 0.445 |
| FIRKDYEACKA [BBS4_Y48_YF] | 0.502 |
| TESNNYIYTTL [FAM83B_Y637_K640T] | 2.74 |
| WQQQSYLGSGI [CTNNB1_Y30_D32G] | 0.634 |
| LQLLGYRPVFS [CHST6_Y358_YF] | 0.535 |
| YISLIYTNYEA [GSTP1_Y109] | 4.5 |
| DRLASYLDKMR [KRT17_Y98_V102M] | 0.483 |
| NSVLVYRNGDP [DCDC2_Y22_K17N] | 0.393 |

| Sequence | phosphorylation enrichment |
| --- | --- |
| WAFNLYDINKY [KCNIP3_Y174_D179Y] | 0.553 |
| GPGLVYGVANK [FLNB_Y1833] | 0.648 |
| KNNDGYTDYAE [MCFD2_Y135_I136T] | 0.515 |
| GTGTAYLCGVK [ALPL_Y117_A114G] | 0.446 |
| LEDPMYDIIRD [RP9_Y142_H137L] | 1.14 |
| PFAEPYADFGG [APBA1_Y187_S184A_YF] | 0.68 |
| VRFMEYETQVK [TARDBP_Y155_T153M] | 0.394 |
| DDHFTYSRFPW [LY75_Y888_YF] | 0.905 |
| MRALIYNSSTV [PLEKHA7_Y243_A248V] | 0.447 |
| ILNANCMAKRL [GLDC_Y839_Y839C] | 0.477 |
| QDRTFYESVRT [SPEN_Y633_YF] | 0.529 |
| MACDRYVAICS [OR8D4_Y123] | 0.623 |
| LFCLHYFHRTF [SRD5A2_Y91_V89L] | 0.71 |
| RGNKEYKEEKR [LENG1_Y96_E97K] | 0.606 |
| ASKEPYFVRCI [MYO1D_Y585_YF] | 0.449 |
| SFTDPYAQPSL [KMT2D_Y2378_P2382S_YF] | 0.508 |

Source: the supplement of paper PMC10065799, “High-throughput profiling of sequence recognition by tyrosine kinases and SH2 domains using bacterial peptide display” (eLife, 2023)
